Patent publication US20020086312A1 (IMMUNEX, published 2002)
Each block holds one molecule with its values, some of them ahead of it.

How the values were obtained:
[1] = target: T1, murine RANK, endogenous on RAW 264.7 cells (murine) (UniProt O35305); assay: cell-based or functional assay
T1 sequence: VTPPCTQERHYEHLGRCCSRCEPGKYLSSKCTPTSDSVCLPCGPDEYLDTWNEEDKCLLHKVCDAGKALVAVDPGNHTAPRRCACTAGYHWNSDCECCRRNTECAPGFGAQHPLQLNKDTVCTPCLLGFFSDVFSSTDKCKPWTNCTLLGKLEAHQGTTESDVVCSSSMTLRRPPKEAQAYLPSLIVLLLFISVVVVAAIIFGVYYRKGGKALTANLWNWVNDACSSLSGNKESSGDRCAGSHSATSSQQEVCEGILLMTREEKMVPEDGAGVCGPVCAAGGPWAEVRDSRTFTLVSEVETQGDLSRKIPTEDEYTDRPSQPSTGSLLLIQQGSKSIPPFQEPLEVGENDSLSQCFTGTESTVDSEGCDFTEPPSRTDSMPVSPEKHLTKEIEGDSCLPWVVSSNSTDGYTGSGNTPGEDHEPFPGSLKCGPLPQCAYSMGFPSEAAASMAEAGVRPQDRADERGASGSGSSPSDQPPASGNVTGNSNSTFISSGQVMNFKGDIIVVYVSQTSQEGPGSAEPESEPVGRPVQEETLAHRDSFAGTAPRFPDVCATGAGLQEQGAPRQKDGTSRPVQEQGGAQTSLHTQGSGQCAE

[2] = target: T2, full-length human RANK (SEQ ID NO:2) (human, UniProt Q9Y6Q6 29-616); assay: cell-based or functional assay
T2 sequence: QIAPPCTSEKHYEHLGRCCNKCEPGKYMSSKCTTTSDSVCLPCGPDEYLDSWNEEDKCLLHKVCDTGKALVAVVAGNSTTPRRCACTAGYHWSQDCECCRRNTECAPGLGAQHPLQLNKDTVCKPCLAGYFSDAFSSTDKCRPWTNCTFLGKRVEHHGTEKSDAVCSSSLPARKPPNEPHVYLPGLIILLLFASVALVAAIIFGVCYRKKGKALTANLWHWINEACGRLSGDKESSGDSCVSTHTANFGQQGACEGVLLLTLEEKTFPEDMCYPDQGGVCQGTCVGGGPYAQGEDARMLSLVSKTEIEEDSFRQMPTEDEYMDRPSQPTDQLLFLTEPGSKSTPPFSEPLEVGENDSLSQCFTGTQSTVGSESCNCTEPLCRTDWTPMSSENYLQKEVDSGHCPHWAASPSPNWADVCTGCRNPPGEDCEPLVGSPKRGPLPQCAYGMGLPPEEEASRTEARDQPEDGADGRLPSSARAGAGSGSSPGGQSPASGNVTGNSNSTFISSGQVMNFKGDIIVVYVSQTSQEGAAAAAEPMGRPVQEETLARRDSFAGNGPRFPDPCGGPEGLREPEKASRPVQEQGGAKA

induction of the MMP-9/luciferase promoter in transfected RAW 264.7 cells, 1 ug/ml for 18 hours [1]: 10 to 15 fold
mouse MMP-9 mRNA in RAW 264.7 cells by quantitative RT-PCR, 200 ng/ml [1]: > 350 fold
mouse TRAP mRNA in RAW 264.7 cells by quantitative RT-PCR, 200 ng/ml [1]: > 250 fold
Molecule: leucine zipper form of murine RANK-L (from UniProt O35235 70-316) (ligand)

32P incorporation into a c-src-specific substrate by extracts of RANK -/- spleen cells expressing wild-type RANK, after differentiation in CSF-1 and mRANK-L [2]: 15 fold
F-actin ring formation (fluorescent phalloidin staining) in RANK -/- cells expressing wild-type RANK, cultured 5 days with CSF-1 and mRANK-L (% of the cells) [2]: > 50
Molecule: murine RANK-L (mRANK-L, 200 ng/ml in the differentiation medium) (from UniProt O35235 70-316) (ligand)

luciferase reporter expression from the human TRAP promoter, co-transfected 293/EBNA cells [2]: ~1.5 fold
luciferase reporter expression from the mouse TRAP promoter, co-transfected 293/EBNA cells [2]: ~4 fold
luciferase reporter expression from the murine MMP-9 promoter, co-transfected 293/EBNA cells [2]: 2.5 fold
B1: human full-length RANK-L (SEQ ID NO:6) (ligand)
chain: MRRASRDYTKYLRGSEEMGGGPGAPHEGPLHAPPPPAPHQPPAASRSMFVALLGLGLGQVVCSVALFFYFRAQMDPNRISEDGTHCIYRILRLHENADFQDTTLESQDTKLIPDSCRRIKQAFQGAVQKELQHIVGSQHIRAEKAMVDGSWLDLAKRSKLEAQPFAHLTINATDIPSGSHKVSLSSWYHDRGWAKISNMTFSNGKLIVNQDGFYYLYANICFRHHETSGDLATEYLQLMVYVTKTSIKIPSSHTLMKGGSTKYWSGNSEFHFYSINVGGFFKLRSGEEISIEVSNPSLLDPDQDATYFGAFKVRDID
